The numbers were not newly measured in PMC8035318, which cites them from elsewhere.

The Kd is the concentration at which binding is half-saturated.

This series deals with Polκ RIR (Homo sapiens) (UniProt Q9UBT6). The series can be described thus: SPR.

With Rev1 CT (from UniProt Q9UBZ9), the Kd is 1700 nM.
